Laboratory results reported in patent US20100272644A1 (UNIVERSITY OF THE SCIENCES IN PHILADELPHIA, published 2010).
Ends that are not written are not given here. fluorescein = fluorescein conjugated to the primary amine of the Lys side chain through an MHS ester

Biological target: defatted HSA (human serum albumin) (human, UniProt P02768 25-609)
Experiment: native acrylamide gel shift, fluorescein-labeled peptide (25 pmol) with defatted HSA (100 pmol)

binding result: binds
B1: fatty acid-conjugated faTraE peptide (peptide)
peptide: CHLDAHWK(fluorescein)G
modifications: not fully specified (residue 1)
notes: also called fatty acid-modified peptide; HOOC-(CH2)15-S-S-peptide
